Test results: paper PMC10720262 (Cell Reports, 2023)
Changes are numbered by the printed parent chain.

B1: CL-513094 (antibody, V domains shown)
VH: QVQLVESGGGVVQPGRSLRLSCAASGFTFSGSGMHWVRQAPGRGLEWVAIIWYDGSHKYYVDSVQGRFIISRDNSKNTLYLEMNNLRVEDTAVYYCVRAYPSGSSNDKYGMDVWGQGTTVTVSS
VL: not shown
B2: CL-513691 (antibody, V domains shown)
VH: QVQLVESGGDVVQTGRSLRLSCAASGFTFSNYGMHWVRQAPDKGLEWVAIIWYDGSNKFYADSVKGRFTISRDNSKNTLYLHIHSLRAEDTAVYYCARDDRGDSAGPYFVYWGQGTLVTVSS
VL: EIVMTQSPATLSVSPGERATLSCRASQSVSDNLAWYQQRPGQAPRLLIYGASIRATGIPARFGGSGSGTEFTLTISILQSADFAVYYCQQHDSWPWTFGQGTKVEIK
B3: CL-513808 (antibody, V domains shown)
VH: B2 VH with D10G, T14P, D42G, H82Q, I83M, H84N, D103H, A105Y, V110D, Y111F
VL: B2 VL with D31S, R39K, G63S, A81E, H91C, D92N, S93N
B4: CL-512508 (antibody, V domains shown)
VH: QVQLVESGGGVVQPGTSLRLSCGASGFTFSSYGMHWVRQAPGKGLEWVAIIWYDGNNKYYADSVKGRFTISRDNSKNTLYLQMNSLRAEDTAVYYCAKVGQFSTSSWGAFDIWGQGTMVTVSS
VL: EIVLTQSPGTLPLSPGERATLSCRASQSVSSSQLAWYQQKPGQAPRLLIYGASSRATAIPDRFSGSGSGTDFTLTISRLEPEDFAVYYCQQYSRLWTFGQGTKVEIK
B5: CL-513041 (antibody, V domains shown)
VH: QEHLVESGGGVVQPGRSLRLSCAASGFTFSNSGMHWVRQAPGKGLEWVAVIWYDGSNKFYADSVRGRFTISRDNSNNTLYLQMNSLRAEDTALYYCARDRLFSGSWNWFDPWGQGTLVTVSS
VL: EIVLTQSPATLSLSPGERATLSCRASQSVSTYLAWYQQKPGQAPRLLIYDASNRATGIPARFSGSGSGTDFTLTISSLEPEDFAVYYCQQRSNWFTFGGGTKVEIK
B6: CL-514716 (antibody, V domains shown)
VH: QIQLVESGGGVVQPGRSLRLSCAASGFTFSTYGMHWVRQAPGKGLEWVAVIWYDGSNKYYADSVQGRFTISRDNSKNTLYLQMNSLRAEDTAIYYCTTVGPIPFDYWGQGTLVTVSS
VL: DIVMTQTPLSSPVILGQPASISCRSSQSLVHSSGNTYLSWLQQRPGQPPRLLIYKTFKRLSGVPDRFSGSGAGTDFTLKISRVEAEDVGVYYCLQSTQFPLTFGGGTKVEIK
B7: CL-512459 (antibody, V domains shown)
VH: QVQLVESGGGVVQPGRSLRLSCTASGFTFSDYGMHWVRQAPGKGLEWVSIIWYDGSKKYYADSVQGRFTISRDNSKNTLYLQMSSLRAEDTAVYYCARAYGSGSYYTFNYWGQGTLVTVSS
VL: EIVMTQSPATLSVSPGERATLSCRASQSVNSNLAWYQQKPGQAPRLLIYGASTRATGFPARFIGSGSGTDFTLTINSLQSEDFAVYYCQQYNHWWTFGQGTKVEIK
B8: CL-512319 (antibody, V domains shown)
VH: QVQLVESGGGVVQPGRSLRLSCAASGFTFSNFGMHWVRQAPGKGLEWVAVIWYDGSHKFYADSLKGRFTISRDNSKNTLYLQMNNLRAEDTAVYYCARAHPVTTDYDKYGMDVWGQGTTVTVSS
VL: DIQMTQSPSTLSSSVGDRVTITCRASQSISIWLAWIQQKPGKAPKLLIYKASSLESGVPSRFSGSGSGTEFTLTISSLQPDDFATYYCQQFYSYWTFGLGTKVEIK
B9: CL-512564 (antibody, V domains shown)
VH: QVQLVESGGGVVQPGRSLRLSCAASGFTFSNSGMHWVRQAPGKGLEWVAIIWYDGSHKFYADSVKGRFTISRDNSKNTLYLQMNSLRIEDTAMYYCVRSYNWNYPVRGDYKYGMDVWGQGTTVTVSS
VL: B8 VL with S13A, I31S, I36F, K45N, K50M, E55Q, Y92N, S93T, L99Q
B10: CL-513780 (antibody, V domains shown)
VH: QVQLVESGGGVVQPGRSLRLSCTASGFIFSNYGMYWVRQAPGKGLDWVALIWYDGSNKYYVGSVKGRFTISRDNSKNTLYLQMNSLRAEDTAVYYCARAGKYSGSGSYLDSWGQGTLVTVSS
VL: B8 VL with Q6P, T10I, S13A, S28N, I31S, I36Y, Y87F, F91Y, L99Q
B11: CL-513809 (antibody, V domains shown)
VH: QVQLVESGGGVVQPGRSLRLSCAASGFIFSNYGMYWVRQTPDKGLEWVALIWYDGNNKFYSDSVKGRFTVSRDNSKNTLYLQMNSLRDEDTALYYCARAGYFYGSGSSLDKWGQGTLVTVSS
VL: B8 VL with S13A, T20S, I36Y, F91Y, Y92N, L99Q
B12: CL-513617 (antibody, V domains shown)
VH: B11 VH with N56G
VL: B8 VL with S13A, T20S, I36Y, T72S, F91Y, Y92N, S93R, L99Q
B13: CL-514146 (antibody, V domains shown)
VH: QVQLVESGGGVVQPGRSLRLSCAVSGFTFSNSGMHWVRQAPGKGLEWVAIIWYDGNNKFYADSVKGRFTISRDNSKNTLYLQMNSLRAEDTSIYYCARAYPSGNYGDKYGMDVWGQGTTVTVSS
VL: B8 VL with S13A, I31S, I36F, K42N, S76N, F91Y, Y92N, Y94F, L99Q
B14: CL-513274 (antibody, V domains shown)
VH: QVQLVESGGGVVQPGRSLRVSCAASGFTFSNYGMYWVRQAPGKGLEWVALIWHDGSNKFYEDSVKGRFTISRDNSKNTLYLQMNSLRAEDTAVYYCARAGYFQGSGSFLDYWGQGTLVTVSS
VL: B8 VL with S13A, I31T, I36Y, Y87F, F91Y, Y92S, L99Q
B15: CL-512871 (antibody, V domains shown)
VH: QVLLVESGGGVVQPGRSLRLSCAASGFTFSNYGMHWVRQAPGKGLEWVALIRYDGINKFYADSVKGRFTISRDNSENTLYMQINSLRAEDTAMYYCAKAYNTSSDYYYGMDVWGQGTTVTVSS
VL: B8 VL with S13A, I31T, I36Y, S53R, F83L, Y92N, L99Q, K106R
B16: CL-513462 (antibody, V domains shown)
VH: B14 VH with L50V, S56T
VL: B8 VL with S13A, I31S, I36Y, Y87F, F91Y, Y92S, L99Q
B17: CL-513069 (antibody, V domains shown)
VH: QVQLVESGGGVVQPGKSLRLSCEASGFTFSNYGMHWVRQAPGKGLDWVAIIWHDGGNKFYADSVRGRFTISRDNSKNTLFLQMNSLRAEDSAVYYCARVFDFRDSCYTMDVWGQGTTVTVSS
VL: B8 VL with S13A, I31S, I36Y, T72S, F91Y, Y92T, S93R, L99Q, K102R, K106Q
B18: CL-513279 (antibody, V domains shown)
VH: QVQLVESGGGVVQPGRSLRLSCAASGFTFSNFGMHWVRQAPVKGLEWVALIWYDGSNKFYADSVQGRFTISRDNSKNILYLQMNSLRAEDTAVYYCAKVEARGVDYHSYGMDVWGQGTTVTVSS
VL: B8 VL with S13A, I31S, I36Y, K45Q, F91Y, Y92K, S93Y, L99Q
B19: CL-514174 (antibody, V domains shown)
VH: B13 VH with A23V, V24A, N31G, A40S, N56S, K65Q, A88V, S92G, I93V, P101L
VL: B8 VL with S13A, I31S, I36F, S76N, Y87F, F91Y, Y92N, S93Y, L99Q
B20: CL-512761 (antibody, V domains shown)
VH: QVQLVESGGGVVQPGTSLRLSCAASGFTFSNYGMHWVRQAPGKGLEWVSITWYDESNKFYADSVKGRFTISRDNSKNTLYLQMNSLRAEDTAVYYCARAYDTLTGYRAQKYGMDVWGQGTTVTVSS
VL: B8 VL with S13A, S28R, I31T, I36Y, Y49N, K50E, S53R, F91Y, Y92N, L99Q
B21: CL-513083 (antibody, V domains shown)
VH: QVQLVESGGGVVQPGRSLRLSCAASGFTFSNYGMHWVRQAPGRGLEWVAIIWYDGSNKYYEDSVKGRFTISRDNSKNTLYLQMNSLRAEDTAVYYCARAQWLDQRHYHYTMDVWGQGTTVTVSS
VL: not shown
B22: CL-512469 (antibody, V domains shown)
VH: QMQLVESGGGVVQPGRSLTLSCEASGFTFSNYGMHWVRQAPGKGLEWVAIIWFDGSHRFYADAVEGRFTISRDNSKNTLFLQMTSLRAEDAAVYYCARVGQFSSSSWGAFDIWGQGTVVTVSS
VL: EIVLTQSPGTLSLSPGESVTLSCRASQIISNTHLAWYQQKPGQAPSLLIYGASSRATGIPDRFSGSGSGTDFTLTISRLEPEDFAVYYCQQYGRLWTFGQGTKVEIK
B23: CL-513701 (antibody, V domains shown)
VH: B10 VH with P14T, D46E, G62D
VL: DIQMTQSPSSVSASVGDRVTITCRASQGISSWLAWYQQKPGKAPKLLIYTASSLQSGVPSRFSGSGSGTDFTLTISSLQPDDFATYFCQQYSRYWTFGQGTKVEIK
B24: CL-512374 (antibody, V domains shown)
VH: QVQLVESGGGVVQPGRSLRLSCAASGFTFSSYGMHWVRQAPGKGLEWVAVIWYDGSNKYYADSVKGRFTISRDNSKNTLYLQMNSLRAEDTAVYYCARDGGGTTRSFDLWGRGTLVTVSS
VL: QSVLTQPPSVSGAPGQRVTISCTGSSSNIGAGYDVHWYQQLPGTAPKLLIYGNSNRPSGVPDRFSGSKSGTSASLAITGLQAEDEADYYCQSYDSSLSGSMFGGGTKLTVL
B25: CL-512870 (antibody, V domains shown)
VH: QVQLVESGGGVVQPGRSLRLSCEASGFTFSHYGMHWVRQAPGRGLEWVAIIWYDGSNTYYRDSVKGRFTISRDNSKDTLFLQMNSLRPDDTAVYYCARALYYDSGSLFDFWGQGTLVTVSS
VL: DIQMTQSPSTLSASVGDRVTITCRASQSISSWLAWYQQKPGKAPKLLIYKASSLETGVPSRFSGSGFGTEFTLSISSLQPDDFATYYCLQYNIYWTFGQGTKVEIK

Target: recombinant full-length PfCSP (Plasmodium falciparum circumsporozoite protein, strain NF54) (Plasmodium falciparum NF54, UniProt P19597)
Sequence (P19597 20-375): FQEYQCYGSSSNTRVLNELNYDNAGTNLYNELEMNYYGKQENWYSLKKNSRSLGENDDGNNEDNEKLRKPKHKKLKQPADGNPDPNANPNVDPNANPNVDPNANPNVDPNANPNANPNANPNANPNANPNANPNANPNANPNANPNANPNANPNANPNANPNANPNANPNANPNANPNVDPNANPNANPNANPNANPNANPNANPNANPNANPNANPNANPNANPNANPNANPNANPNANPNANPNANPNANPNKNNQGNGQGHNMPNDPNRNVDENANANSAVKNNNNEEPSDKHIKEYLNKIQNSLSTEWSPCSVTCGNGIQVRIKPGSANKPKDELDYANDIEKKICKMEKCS

Binder | binding result
B1 | binds
B2 | binds
B3 | binds
B4 | binds
B5 | binds
B6 | binds
B7 | binds
B8 | binds
B9 | binds
B10 | binds
B11 | binds
B12 | binds
B13 | binds
B14 | binds
B15 | binds
B16 | binds
B17 | binds
B18 | binds
B19 | binds
B20 | binds
B21 | binds
B22 | binds
B23 | binds
B24 | binds
B25 | binds
